Reference: publication PMC12356840, “Structural basis for substrate recognition mechanism of human SLC26A7” (Nature Communications, 2025)

Molecular target: the molecule itself
Assay: cryo-EM structure; purified SLC26A7 in 25 mM Tris pH 8.0, 150 mM NaCl, 0.02% GDN, 5-10 mg/ml; apo sample and sample with 20 mM sodium iodide; dimer model obtained by C2 symmetry

B1: human SLC26A7 (solute carrier family 26 member 7) (natural protein, UniProt Q8TE54 1-656, looked up)
chain: MTGAKRKKKSMLWSKMHTPQCEDIIQWCRRRLPILDWAPHYNLKENLLPDTVSGIMLAVQQVTQGLAFAVLSSVHPVFGLYGSLFPAIIYAIFGMGHHVATGTFALTSLISANAVERIVPQNMQNLTTQSNTSVLGLSDFEMQRIHVAAAVSFLGGVIQVAMFVLQLGSATFVVTEPVISAMTTGAATHVVTSQVKYLLGMKMPYISGPLGFFYIYAYVFENIKSVRLEALLLSLLSIVVLVLVKELNEQFKRKIKVVLPVDLVLIIAASFACYCTNMENTYGLEVVGHIPQGIPSPRAPPMNILSAVITEAFGVALVGYVASLALAQGSAKKFKYSIDDNQEFLAHGLSNIVSSFFFCIPSAAAMGRTAGLYSTGAKTQVACLISCIFVLIVIYAIGPLLYWLPMCVLASIIVVGLKGMLIQFRDLKKYWNVDKIDWGIWVSTYVFTICFAANVGLLFGVVCTIAIVIGRFPRAMTVSIKNMKEMEFKVKTEMDSETLQQVKIISINNPLVFLNAKKFYTDLMNMIQKENACNQPLDDISKCEQNTLLNSLSNGNCNEEASQSCPNEKCYLILDCSGFTFFDYSGVSMLVEVYMDCKGRSVDVLLAHCTASLIKAMTYYGNLDSEKPIFFESVSAAISHIHSNKNLSKLSDHSEV
notes: full-length wild-type human SLC26A7 (also known as SUT2), UniProt Q8TE54; Homodimer (domain-swapped) in the cryo-EM structures; both were used to capture the protein on the way to the structure; The iodide-loaded sample had 20 mM sodium iodide throughout the purification; also called SUT2; SLC26A7_apo
stoichiometry N: 2
